Laboratory results from patent US20250154238A1 (YALE UNIVERSITY, published 2025).

How the values were obtained:
[1] = molecular target: T1, recombinant human epiregulin containing the epidermal growth factor (EGF) domain (R&D Biosciences Cat … (human, UniProt O14944 63-108)); experiment: cell-based or functional assay
[2] = molecular target: T1, recombinant human epiregulin containing …; experiment: Octet bio-layer interferometry, recombinant human epiregulin immobilized
[3] = molecular target: T1, recombinant human epiregulin containing …; experiment: cell-based or functional assay; remark: listed apart in the source
[4] = molecular target: T1, recombinant human epiregulin containing …; experiment: cell-based or functional assay; remark: listed apart in the source

T1 sequence (O14944 63-108 limits assumed): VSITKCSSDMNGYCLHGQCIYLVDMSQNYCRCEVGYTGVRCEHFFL

- IC50 (nM), calculated from HFF proliferation assays [1]: 1.8 nM
- Kd [2]: 0.038 nM
- IC50 of inhibition of epiregulin-induced HFF proliferation (rhEreg 100 ng/ml) [3]: 0.1 to 0.3 mg/L
- IC50 of inhibition of HFF proliferation induced by 100 ng/ml rhEreg (GFP fluorescence, CyQUANT, day 3) [4]: 0.27 mg/L
B1: humanized epiregulin neutralizing antibody 1 (hEreg NAb1) (antibody, V domains shown)
VH: HLQLQESGPGLVKSSETLSLTCSVSGGSISSSGYYWGWIRQPPGKGLEWIGSFYYSGNTYYNPSLKSRVTISADTSKSQYSLKLSSVTAADTAVYYCARHPFNWNDHYHYMDVWGNGTTVTVSS
VL: DIQMTQSPSSLSASVGDSVTITCRASQSISNYLNWYQKKPGKAPKVLIYAASSLQSGVPSRFSGSGSGTDFTLTISSLQPEDFATYYCQQSYITSITFGQGTRLEIK
notes: The clone comes from hybridomas of Alloy mice (fully human variable regions) and represents wells M3, M4 and M5; also called humanized epiregulin antibody; M3
